Laboratory results as given in the DeepSol protein solubility set.

Test: soluble on expression in E. coli; label from the status in PepcDB or PDB records

Sequence	soluble on expression in E. coli
MGSDKIHHHHHHMESYYAVLDAMAAAPGDGVFAIIIDVEGSAYQKEGTWMWIEASGKTTGLLSGGCFEEAVAAHALDVLSNRQATSISFDLRAEDDWSWGQGAGCNGLVRIWLEPVTSNTKPDWLALKRCLDRGEHVFMARSITDPREQPFFQSETGERFGGYSSPPRPEWLKELHGTPFFRGRNGVYETEEDTFFIQHFWPKPRLTIFGAGPDAPPLVSAAKAAGFSVTVSDWRPAFCQPSHVPDADAWVVGFPHETIPKLHLTERDFVVIMTHQFERDRELMRWLADIPLAYLGVLGPRRRTDRLFPSGTAPPFVRSPIGLPIGARSPHEIAISITAELINVLRGGPMETAR	not soluble
MDPAKVNTVDEDIKFKEVPGITNILLLSSDARPGEDVSRSDSIMILTIDNINKKLKVTSLMRDMLVKIDGHGEEKLNHAFAYGGPTKTIETIQNNFGIKLNNYVIVDFNAFVKVIDAINGIEVTVKDYELDELNKYILDGGGSEEDLLPSPGTYNLNGYQALSYARIRKVGNGEYERTERQRAVLQIALEKVKDMSTVKLVSLLNELFPYVKTNISLGNAMDYGFTALNVGKKCNFEIEQFRVPLDSISKGGIINNKGWVFVIDKVETSKALQEFIFNDNKNYEPDTSNFDSIIEQYFNDYDIKDDTTHPLEHHHHHH	soluble
MHHHHHHSSGRENLYFQGPKCIQCGQYLDDPDLKYGQHPPDAVDEPQMLTNEKLSIFDANESGFESYEALPQHKLTCFSVYCKHGHLCPIDTGLIEKNIELFFSGSAKPIYDDDPSLEGGVNGKNLGPINEWWITGFDGGEKALIGFSTSFAEYILMDPSPEYAPIFGLMQEKIYISKIVVEFLQSNSDSTYEDLINKIETTVPPSGLNLNRFTEDSLLRHAQFVVEQVESYDEAGDSDEQPIFLTPCMRDLIKLAGVTLGQRRAQAR	soluble
MNAHVTSREGVNEFDDGIVIVGGGLAAARTAEQLRRAGYSGRLTIVSDEVHLPYDRPPLSKEVLRSEVDDVALKPREFYDEKDIALRLGSAAVSLDTGEQTVTLADGTVLGYDELVIATGLVPRRIPSLPDLDGIRVLRSFDESMALRKHASAARHAVVVGAGFIGCEVAASLRGLGVDVVLVEPQPAPLASVLGEQIGQLVTRLHRDEGVDVRTGVTVAEVRGKGHVDAVVLTDGTELPADLVVVGIGSTPATEWLEGSGVEVDNGVICDKAGRTSAPNVWALGDVASWRDPMGHQARVEHWSNVADQARVVVPAMLGTDVPTGVVVPYFWSDQYDVKIQCLGEPHATDVVHLVEDDGRKFLAYYERDGVLVGVVGGGMAGKVMKVRGKIAAGAPIAEVLDQTQA	soluble
MRRVMIPKPGGGERPLGIPTIRDRVVQAAAKIVLEPIFEADFEDGAYGYRPRRNAVDAVKEVHRLMCRGYTDVVDADLSKYFDTIPHSDLLKSVARRIVDRNVLRLIKLWLRVPVEERDSNGKRRMSGGKSNKCGTPQGGVMVPLEHHHHHH	not soluble
MKSASDPFDLKRFVYAQAPVYRSVVEELRAGRKRGHWMWFVFPQLRGLGSSPLAVRYGISSLEEAQAYLQHDLLGPRLHECTGLVNQVQGRSIEEIFGPPDDLKLCSSMTLFARATDANQDFVALLAKYYGGGEDRRTVALLAVT	soluble
MGSDKIHHHHHHMRKDEYRATLLEPNVWHIADYRGDSMYLVVGEEKALLVDTGMGEGDLKGFVRSITEKPVEVVLTHAHWDHIMQANQFEKVYLNHRDFQIIELFKINVNYENFLNVKEGDRFDLGGRTLEVIEVPGHTPGSIVLLDRENRLLFSGDSVGAGHTWMHLPGCLPLREYLKSLKKLKETDSFEKIYHGHLTGTQLKPFGPDYLDDLIKAVEGVIDGSLRGEP	not soluble
MGSDKIHHHHHHMEIVFVYDAVYPWTKGGVERRLHEVGRRLSNEHNVKWLCVGWWGKEKRIQEGVELIPVCKAQQLYSRGRRTIREAMIFAASLLKKSRIKADVIDCQVFPYLSVFPFATRKELVLTWHEFWGDYWYEYLGKAGFFGKAVERIVAKLKARTIAVSETTRKALESLGIRATVIPNGVDFPRISEIPASSEEWDVIFVGRLIREKNLELLFDAMKLLPELNCLVVGDGPERERLSKIAPANVDFGGSLGYEEVISMMKSSKVFAIPSRREGFGISALEANACGLPVVTIRHQMNAVVEIAEKTGFVAEPHARDFAEKIRLALEMRREMREKCINFAKNFDWEVIARRLEEFYEGVHSPPNEGRAE	not soluble
MSNPILTSTLIILRGNSSSGKTTIAKQLQEHFGQGTLLVSQDVVRRDMLRVHDTMGNLSHDLLFEITKYGKGKCEFVILEGILNSHRYGEMLKELIRYFDENAFAYYFDLSLEETIRRHNTRDKRHEFGEDSLQKWYNPHDTIKVATETIFTDNFTQKDIFDAILNDVAIEKQALEHHHHHH	soluble
MSLDFHGVFPYLVSPVDAEGRVRADVMGRLCDDLIQAGVHGLTPLGSTGEFAYLGTAQREAVVRATIEAAQRRVPVVAGVASTSVADAVAQAKLYEKLGADGILAILEAYFPLKDAQIESYFRAIADAVEIPVVIYTNPQFQRSDLTLDVIARLAEHPRIRYIKDASTNTGRLLSIINRCGDALQVFSASAHIPAAVMLIGGVGWMAGPACIAPRQSVALYELCKAQRWDEALMLQRKLWRVNEAFAKFNLAACIKAGLALQGYDVGDPIPPQAALTAEERKAVEKVLAEIAEGHHHHHH	soluble
MVFDAIVVTDLQGFIIDWNKGSETLYGYSKEQAIGQPVNMLHVPGDTEHITSEVISAVENQGKWTGEIRMLHKDGHIGWIESMCVPIYGENYQMVGALGINRDITKRKKELEHHHHHH	not soluble
MLDPGPNPAPRPSRDRAPHAVVIGSGFGGLAAAVRLGAKGYRVTVLEKLDKAGGRAYVHKQDGFSFDAGPTIVTAPYLFEELWKLCGKRMSDDITLKPMSPFYRIRFDDGTHFDYSDDRDAVLDQIAKFCPDDVPAYDRFMAASHEIFKVGFEQLGDQPFSHFTDMLKIAPAMIKLESYRSVYGLVAKHFKDPKLRQVFSFHPLLIGGNPFMSSSVYCLITYLEKQWGVHSAMGGTGALVTGLVNLIEGQGNTIRYNQDVRQIVVENGTACGVKLADGEVIKADIVVSNADSASTYRYLLPPETRKRWTDAKIEKSRYSMSLFVWYFGTKRRYEDVKHHTILLGPRYKELISDIFSRKVVAEDFSLYLHRPTATDPSLAPQGCDTFYVLSPVPNLLGDTDWHTKAETYRASIAKMLGATVLPDLENQIATSKITTPIDFQDRLSSFRGAAFGLEPVLWQSAWFRPHNQSEDVKRLYLVGAGTHPGAGLPGVLSSARVLDALVPEADSLVTSLEHHHHHH	not soluble
GSHMNTLKKAFEILDFIVKNPGDVSVSEIAEKFNMSVSNAYKYMVVLEEKGFVLRKKDKRYVPGYKLIEYGSFVLRRFNIRDIAHDHLVDIMKRTGETVHLILKDGFEGVYIDKVEGEQSIPMVSRLGMKVDLYSTASGKSILAFVPEKELKEYLKIVELKPKTPNTITNPRVLKRELEKIRKRGYAVDNEENEIGIMCVGVPIFDHNGYPVAGVSISGVARKFTEEKIEEYSDVLKEKAEEISRKLGY	soluble
ASVRVVQKNLVFVVGLSQRLADPEVLKRPEYFGKFGKIHKVVINNSTSYAGSQGPSASAYVTYIRSEDALRAIQCVNNVVVDGRTLKASLGTTKYCSY	soluble
DQVDVKDCANNEIKKVMVDGCHGSDPCIIHRGKPFTLEALFDANQNTKTAKIEIKASLDGLEIDVPGIDTNACHFVKCPLVKGQQYDIKYTWNVPKIAPKSENVVVTVKLIGDNGVLACAIATHGKIRD	soluble
MEAGSIVLGLVGKTNVGKSTFFAAATEVPVKIENRPFVTIEPNVGVGYARKRCAHVELGLPRCDPVNSLCIEGWRFIPVKLLDVAGLVPGAHRGRGLGNRFLDDVRKADALLLVVDASGSTDPEGVPVKPGSYDPVEEVGLMLGEIYEWMLQNLARDWERFARRVDTAGNVDLVTALSQRLSGFEIPRGVVAGVLEETGLGEKRLSSWSREDLRLFVKLVLERGKPAVILANKVDVPGAEENVERLGSSYPGIPVVPASALAELMLRRLAREGRVRYIPGDPDFTVKDPGGLGGKALKALELVRERVMKRWGGTGVVQAINTAVFDVLDMIAVYPVEDPNRYTDREGRILPDVILVKRGSTPRDLAYRIHTDLGKTFLYAVNAKTKQRVGEGYRLQDGDVVKIVAAAGKR	soluble
MGSDKIHHHHHHMKQLTMPLTALALFTLGGCVTNSDLDVVRRDLDELKNRQFQVEKEVGGVRTEATARIESSFKDLDTERAGVRKGLADLQAAMDGIKVDMQVLAGKVDDVGLAAKKPGDDLILLREDLERRLTAFDQRLAKAETGIEALQKKVAEQAPSPKETEKPTPEALYQKGLDAYRAGNYGVARESFTRFLEQHPKHELAANARYWTGETYYSEKKFEQAILEFQEVIKNYPGKEKVPAAMLKQAAAFSEIGDAKSARFVLRKLADDYPSSEEAKRAKDRLKELK	not soluble
MHHHHHHSSGVDLGTENLYFQSNAMKIDYLTLFPEMFDGVLNHSIMKRAQENNKLQINTVNFRDYAINKHNQVDDYPYGGGQGMVLKPEPVFNAMEDLDVTEQARVILMCPQGEPFSHQKAVELSKADHIVFICGHYEGYDERIRTHLVTDEISMGDYVLTGGELPAMTMTDAIVRLIPGVLGNEQSHQDDSFSDGLLEFPQYTRPREFKGLTVPDVLLSGNHANIDAWRHEQKLIRTYNKRPDLIEKYPLTNADKQILERYKIGLKKG	soluble
MLSFTLRRAMSFTTRILKVRPESIQFVNDKPQISDNETLINLEIAAKELTTTHNAIGFPTETVYGLAGSALSDESVKSIYKAKNRPADNPLIVHISSIEQLKRKLINYEIPQVYLDLISHFWPGPLTILLPITKDSPISKLVTANQDTFAVRMPNHPVARALIAMSDTPIAAPSANASTRPSPTLAEHVYHDLNGKIPLILDGGACNVGVESTVIDGLVDPPMLLRPGGVSLEDIKRVGGKLWENIVVAKKTAGKLEPVKTPGMKYRHYSPTAKVVLFVNCGDGINAIENYLTNNKVDASTTKIALLKSKHFGEDHPHFIIKRLGTTGNEISHNLFKYLREVDEEDKVELIFVEGIDETNEGLAVMNRLSKAAMEVVNGGEA	soluble
YNSGKLEEFVQGNLERECMEEKCSFEEAREVFENTERTTEFWKQYEEEEEE	soluble
MSGCDAWEGDCCSRRCGAQDKEHPRYLIPELCKQFYHLGWVTGTGGGISLKHGDEIYIAPSGVQKERIQPEDMFVYDINEKDISGPSPSKKLKKSQCTPLFMNAYTMRGAGAVIHTHSKAAVMATLLFPGREFKITHQEMIKGIKKCTSGGYYRYDDMLVVPIIENTPEEKDLKDRMAHAMNEYPDSCAVLVRRHGVYVWGETWEKAKTMCECYDYLFDIAVSMKKVGLDPSQLPVGENGIV	soluble
MSLYPLVLDLAATGVPVAVTCRELGFTKQGFYKWCAHPVSARDWDEAHLINAAYDVHTDDPEFGHRFIADELHAAGLQTSERRVWRLCSQQQLFSHTIKRARKHGKKPGPPVCDDLVERDFTAKAINELWLTDVTEHHTSEGKLYMCAVKDVFSNRIVGYAIDSRMKSRLAVAAIDDAVARRGGSGMIAGCVVHSDRGSQFRSRKFQQALRHYGLVGSMGRVGAAGDNAAMESFFAVLQKNVLDRGRWDTRARLRTAIVHWVERTYHRKRRQRRLGKLTPVEYELVHQKAVALAAEGHHHHHH	not soluble
